{"source": "patent US20110093983A1", "about": "“ALGAL GLYCEROL-3 PHOSPHATE ACYLTRANSFERASE” (National Research Council of Canada, priority 2008, published 2011)", "molecules": {"B1": {"name": "TpGPAT1: membrane-bound glycerol-3-phosphate acyltransferase from T. pseudonana, 674 amino acids, SEQ ID NO:2 (nucleotide SEQ ID NO:1) (protein, listed as Thalassiosira pseudonana)", "chain": "MGVEKKGTMMSELDYTKAQLAFFYIVVLLSLDMLNPVKIFLHVFPAIKSWHIATFAIACMSYIFIVNLRELLYFATKVFFHSILSIFFNDVTVVGRENIPSHGPVIFTSNHANQFMDGLMIMCTCQRTISYLVADKSWNRPIIGHLAWMMGGVPVKRAQDSACKGTGKISIDLNALAGSDAVINVVGKGTSFTSQIKAGDKIRLPNNAIGIKVESIESDESMSLKVEDGVAEVLSSHPFPEYVTYDILPRIDQKDVYQNVLEKLASGGTIGIFPEGGSHDRTDLLPLKVGVALIAYSELEKDGINVPIVPVGLNYFRAHRFRGKATVEFGSPTYIEPSTLADYKKGGADKRRVCNDLLARIENSMRSVIVSVPDFETLQTIHAARRLYRQDGRNETAEQRQDMGRRFAEGYKRVLLQLGGEPPEEWLSLQSRILAYQKELNELGIRDYQVVGLDHEEVELGSESQGHSKADTVLHRMNVFGHIVHLFVIAVLAALPAMLLNLPVGLASRIYSNRRRKVALAASKVKVKGYDVMLSERVLACIVLVPSLWVVYGLLLSLFTSLDGPSLAVCFTCFPLFSYWSIMATESGMVDIKDLRPYVMRMIPSARRRLAALPATRKALRSDLRAMIKKIGPSLGDIYYEKDLNWQKIQMETKRMSMEELDPAQKDEAAKKEE"}}, "key": {"yeast gat1 mutant [1]": {"tested_on": "yeast gat1 mutant", "test": "Incorporation of fed EPA or DHA into TAGs and phospholipids of yeast gat1 mutant", "format": "cell-based, Saccharomyces cerevisiae", "conditions": "for mol % of FA in Phospholipids, DHA / mol % of FA in Phospholipids, EPA / mol % of FA in TAGS, DHA / mol % of FA in TAGS, EPA: 3-day induction", "experimental": "Yeast cultures were grown at 28° C. in the presence of 2% (w/v) glucose and 1% (w/v) Tergitol NP-40 (Sigma, St. Louis, Mo., US). Expression of the transgene was induced at OD600 nm 0.2 to 0.3 by supplementing galactose to 2% (w/v). At that time, the appropriate FAs were added to a final concentration of 50 or 100 μM in the presence of 1% (w/v) Tergitol NP-40 (Sigma, St. Louis, Mo., US). Yeast cells (20 ml) were harvested after a 3-day incubation, total lipids from yeast homogenates were extracted using the procedure of Schneiter (2005). Separation of neutral lipids and polar lipids was performed by running the thin layer chromatography plates (Si 250-PA, Baker, Phillipsburg, N.J.) in a developing solvent of hexane: ether: acetic acid (70:30:1, v/v) and identified by co-migration with known standards. Spots corresponding to TAG and phospholipid were scraped off the TLC plates and were transmethylated with methanolic HCl and quantified by gas chromatography as described previously. (Zheng and Zou, 2001).\nYeast gat1 strain transformed with TpGPAT or empty vector pYES2.1 was grown in the presence of EPA or DHA, while being induced by galactose. Triacylglycerols (TAGS) and phospholipids from the 3-day culture were extracted and analyzed by gas chromatography for fatty acid composition. […] It was not clear if this were due to the low GPAT activity for these VLCPUFAs or the lack of EPA and DHA-CoA in the cells."}, "Brassica napus": {"tested_on": "Brassica napus", "test": "Fatty acid analysis of T1 seeds from TpGPAT transgenic Brassica napus", "format": "in vivo", "conditions": "5 transgenic Brassica napus events; wild-type 4.27-4.64%", "experimental": "FIG. 6 graphically depicts the results of the analysis of the fatty acid 16:0 content of T1 seeds from TpGPAT transgenic Brassica napus. Fatty acid analysis was performed on TpGPAT transformed B. napus seeds. Fatty acid composition (as molar percentage) was determined in the seed oil extracted from T1 seeds of five independent TpGPAT:pSE transformed Brassica napus events (GPAT1, 3, 4, 7 and 12). Wild-type B. napus was used as a control.\n(§1) The full length coding region of the TpGPAT gene was amplified using pfu DNA polymerase and primers designed with two restriction sites (KpnI and XbaI) added for subsequent cloning. Then, the PCR product was digested and inserted in a plant transformation vector (pSE129A) under the control of a seed-specific promoter (Napin). The binary vector was introduced by electroporation into Agrobacterium tumefaciens strain GV3101 containing helper plasmid pMP90 (Koncz and Schell, 1986).\nBrassica napus 5-day-old hypocotyls were also transformed with Agrobacterium containing the TpGPAT/pSE129A construct. Transgenic T0 plants were regenerated, selected for resistance to kanamycin and grown in soil. Individual plants were bagged to allow self-pollination. Presence of the TpGPAT and Kan genes in the resistant plants was verified by PCR with the appropriate primers in 18 independent events. T1 seeds from the first set of 5 transgenic events were harvested and analyzed. […]"}, "Arabidopsis thaliana": {"tested_on": "Arabidopsis thaliana", "test": "Fatty acid and oil content analysis of T2 seeds from TpGPAT transgenic Arabidopsis", "format": "in vivo", "conditions": "transgenic Arabidopsis lines (GW), Napin promoter", "experimental": "FIG. 5 graphically depicts the results of the analysis of the fatty acid 16:0 content of T2 seeds from TpGPAT transgenic Arabidopsis. Fatty acid analysis was performed on TpGPAT transformed Arabidopsis seeds. Fatty acid composition (as molar percentage) was determined in the seed oil extracted from 200 T2 seeds of 13 TpGPA:pSE transformed Arabidopsis lines (GW4-GW17). pSE129A empty plasmid transformed wild-type Arabidopsis was used as a control.\nFIG. 7 graphically depicts the total oil content of TpGPAT transformed Arabidopsis seeds. Oil contents (as percentage of dry weight) were determined in 200 T2 seeds of the 13 TpGPA:pSE transformed Arabidopsis lines (GW4-12; GW14-17). Wild-type Arabidopsis was used as a control (Con).\nas §1, with “1986). […]” for “1986).”"}, "yeast gat1 mutant [2]": {"tested_on": "yeast gat1 mutant", "test": "Lipidomic analysis of phospholipids from yeast gat1 transformed with TpGPAT or GAT1, fed EPA or DHA", "format": "cell-based, Saccharomyces cerevisiae", "conditions": "tandem mass spectrometer lipidomics", "text": "FIG. 4 graphically depicts the results of the lipidomic analysis (fatty acid composition) of the lipids from yeast gat1 mutants transformed with either TpGPAT1 or GAT1. Yeast cells expressing TpGPAT or yeast GAT1 were fed with EPA (20:5) or DHA (22:6) upon induction of the genes. Total lipids from the yeast cells were extracted and subjected to lipidomic analysis using a tandem mass spectrometer. The results are presented as the molar ratio of EPA- or DHA-containing phospholipids (PC, PE, PS, PI) in the total phospholipids.\nTo further determine the role of TpGPAT in the incorporation of VLGPUFAs into glycerolipids, yeast gat1 strain transformed with TpGPAT or GAT1 under the control of the GAL1 promoter was grown in the presence of EPA (20:5) or DHA (22:6) upon induction of the genes. Phospholipids were extracted and subjected to lipidomic analysis using a tandem mass spectrometer (testing conducted by the Kansas Lipidomics Research Center). […] It was thus concluded that TpGPAT has a role in controlling PUFA accumulation in glycerolipid."}}, "data": [{"molecule": "B1", "values": [{"measurement": "mol % of FA in Phospholipids, DHA", "setting": "yeast gat1 mutant [1]; feeding concentration 50 μM", "result": "0.22 ± 0.03", "unit": "mol %"}, {"measurement": "mol % of FA in Phospholipids, EPA", "setting": "yeast gat1 mutant [1]; feeding concentration 50 μM", "result": "0.42 ± 0.01", "unit": "mol %"}, {"measurement": "mol % of FA in TAGS, DHA", "setting": "yeast gat1 mutant [1]; feeding concentration 50 μM", "result": "0.70 ± 0.06", "unit": "mol %"}, {"measurement": "mol % of FA in TAGS, EPA", "setting": "yeast gat1 mutant [1]; feeding concentration 50 μM", "result": 1.18, "unit": "mol %"}, {"measurement": "mol % of FA in Phospholipids, DHA", "setting": "yeast gat1 mutant [1]; feeding concentration 100 μM", "result": "0.34 ± 0.02", "unit": "mol %"}, {"measurement": "mol % of FA in Phospholipids, EPA", "setting": "yeast gat1 mutant [1]; feeding concentration 100 μM", "result": "0.85 ± 0.15", "unit": "mol %"}, {"measurement": "mol % of FA in TAGS, DHA", "setting": "yeast gat1 mutant [1]; feeding concentration 100 μM", "result": "1.10 ± 0.07", "unit": "mol %"}, {"measurement": "mol % of FA in TAGS, EPA", "setting": "yeast gat1 mutant [1]; feeding concentration 100 μM", "result": "3.38 ± 0.78", "unit": "mol %"}, {"measurement": "Impact on incorporation of LCPUFAs into TAG or phospholipids compared to empty vector control", "setting": "yeast gat1 mutant [1]; yeast gat1 grown in presence of EPA or DHA, 3-day culture", "result": "did not have much impact"}, {"measurement": "16:0 percentage in T1 seeds", "setting": "Brassica napus", "result": "4.64-6.67%"}, {"measurement": "16:0 content of T2 seeds compared to non-transformed control", "setting": "Arabidopsis thaliana", "result": "More than half of the identified transgenic lines (GW) showed an increase of 16:0"}, {"measurement": "Molar percentage of DHA in phospholipids", "setting": "yeast gat1 mutant [2]; yeast gat1 fed DHA (22:6)", "result": 0.563, "unit": "%"}, {"measurement": "Molar percentage of EPA in phospholipids", "setting": "yeast gat1 mutant [2]; yeast gat1 fed EPA (20:5)", "result": 3.696, "unit": "%"}]}]}
